B1: RcsD fused to the T25 or the T18 fragment of adenylate cyclase (natural protein, E. coli, UniProt P39838 1-890, looked up)
chain: MRQKETTATTRFSLLPGSITRFFLLLIIVLLVTMGVMVQSAVNAWLKDKSYQIVDITHAIQKRVDNWRYVTWQIYDNIAATTSPSSGEGLQETRLKQDVYYLEKPRRKTEALIFGSHDNSTLEMTQRMSTYLDTLWGAENVPWSMYYLNGQDNSLVLISTLPLKDLTSGFKESTVSDIVDSRRAEMLQQANALDERESFSNMRRLAWQNGHYFTLRTTFNQPGHLATVVAFDLPINDLIPPGMPLDSFRLEPDATATGNNDNEKEGTDSVSIHFNSTKIEISSALNSTDMRLVWQVPYGTLLLDTLQNILLPLLLNIGLLALALFGYTTFRHFSSRSTENVPSTAVNNELRILRAINEEIVSLLPLGLLVHDQESNRTVISNKIADHLLPHLNLQNITTMAEQHQGIIQATINNELYEIRMFRSQVAPRTQIFIIRDQDREVLVNKKLKQAQRLYEKNQQGRMIFMKNIGDALKEPAQSLAESAAKLNAPESKQLANQADVLVRLVDEIQLANMLADDSWKSETVLFSVQDLIDEVVPSVLPAIKRKGLQLLINNHLKAHDMRRGDRDALRRILLLLMQYAVTSTQLGKITLEVDQDESSEDRLTFRILDTGEGVSIHEMDNLHFPFINQTQNDRYGKADPLAFWLSDQLARKLGGHLNIKTRDGLGTRYSVHIKMLAADPEVEEEEERLLDDVCVMVDVTSAEIRNIVTRQLENWGATCITPDERLISQDYDIFLTDNPSNLTASGLLLSDDESGVREIGPGQLCVNFNMSNAMQEAVLQLIEVQLAQEEVTESPLGGDENAQLHASGYYALFVDTVPDDVKRLYTEAATSDFAALAQTAHRLKGVFAMLNLVPGKQLCETLEHLIREKDVPGIEKYISDIDSYVKSLL
notes: RcsD, phosphotransfer protein of the Rcs phosphorelay, inner membrane protein, 890 aa; Two fusions of the same protein, each chain with ONE of the two tags: T25 (pEAW8) or T18 (pEAW7); also called RcsD-T25; RcsD-T18; source: bacterial two-hybrid (BACTH) fusion, expressed from a plasmid in E. coli BTH101; not shown: T25 fragment of Bordetella adenylate cyclase (Cya), C-terminal, kept; T18 fragment …
B2: IgaA fused to the T18 or the T25 fragment of adenylate cyclase (natural protein, E. coli, UniProt P45800 1-711, looked up)
chain: MSTIVIFLAALLACSLLAGWLIKVRSRRRQLPWTNAFADAQTRKLTPEERSAVENYLESLTQVLQVPGPTGASAAPISLALNAESNNVMMLTHAITRYGISTDDPNKWRYYLDSVEVHLPPFWEQYINDENTVELIHTDSLPLVISLNGHTLQEYMQETRSYALQPVPSTQASIRGEESEQIELLNIRKETHEEYALSRPRGLREALLIVASFLMFFFCLITPDVFVPWLAGGALLLLGAGLWGLFAPPAKSSLREIHCLRGTPRRWGLFGENDQEQINNISLGIIDLVYPAHWQPYIAQDLGQQTDIDIYLDRHVVRQGRYLSLHDEVKNFPLQHWLRSTIIAAGSLLVLFMLLFWIPLDMPLKFTLSWMKGAQTIEATSVKQLADAGVRVGDTLRISGTGMCNIRTSGTWSAKTNSPFLPFDCSQIIWNDARSLPLPESELVNKATALTEAVNRQLHPKPEDESRVSASLRSAIQKSGMVLLDDFGDIVLKTADLCSAKDDCVRLKNALVNLGNSKDWDALVKRANAGKLDGVNVLLRPVSAESLDNLVATSTAPFITHETARAAQSLNSPAPGGFLIVSDEGSDFVDQPWPSASLYDYPPQEQWNAFQKLAQMLMHTPFNAEGIVTKIFTDANGTQHIGLHPIPDRSGLWRYLSTTLLLLTMLGSAIYNGVQAWRRYQRHRTRMMEIQAYYESCLNPQLITPSESLIE
notes: IgaA (E. coli homolog, gene yrfF), five-pass inner membrane protein; Two fusions of the same protein, each chain with ONE of the two tags: T18 (pEAW1) or T25 (pEAW2); also called YrfF; IgaA-T18; source: bacterial two-hybrid (BACTH) fusion, expressed from a plasmid in E. coli BTH101; not shown: T18 fragment of Bordetella adenylate cyclase (Cya), C-terminal, kept; T25 fragment of Bordetella …

How the values were obtained:
[1] = target: B2; experiment: two-hybrid; bacterial adenylate cyclase two-hybrid (BACTH): T18 and T25 fragments fused C-terminally to the two proteins, two plasmids in cyaA deficient E. coli BTH101; beta-galactosidase activity (Miller units) against fusion plus empty cognate vector as background; threshold for reliable interaction 4x over background; IgaA/RcsD also tested in rcsB, rcsC, rcsF and rcsD mutant hosts; in the rows the T25 fusion is …; conditions: partners not purified
[2] = target: B1; experiment: as above; conditions: partners not purified

Row | Binder | beta-galactosidase activity, fold over either fusion paired with an empty cognate vector [1] | beta-galactosidase level, fold over the single construct (background) controls [1] | beta-galactosidase activity [2] | beta-galactosidase activity, fold over either fusion paired with an empty cognate vector [2]
1 | B1 | ~20 fold | > 30 fold |  | 
2 | B2 |  |  | ≥ 1000 Miller units | ~20 fold
